Results on 94 variants are retold here after the supplement of paper PMC10567573.

To fix the notation:
B1: OAS1 (parent)
chain: LTVYAWERGSMKTHFNTAQGFRTV
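Note: lentivirally expressed fusions sorted by FACS into six bins by GFP to DsRed ratio, PSI derived from sequencing read proportions per bin multiplied by bin number.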

Variants of B1 are the subject of the data set. Briefly: protein stability index of a GFP-peptide fusion (GPS, HEK-293T) (PSI 1-6); higher = more stable. As to conditions: c terminus: a fixed tail appended.
Turning to LTVYAWERGSMKTHFQTAQGFRTV, the protein stability index stood at 2.83.

Consider LTVYAWERGSMKTHFTTAQGFRTV, for which the protein stability index turned out to be 2.45.

With LTVYAWERGSMKTHFYTAQGFRTV, the protein stability index was found to be 1.95.

For the variant LTVYAWERGSMKTHFSTAQGFRTV, the protein stability index came out at 3.5.

Regarding LTVYAWERGSMKTHFDTAQGFRTV, the protein stability index stood at 1.66.

For the variant LTVYAWERGSMKTHFLTAQGFRTV, the protein stability index turned out to be 2.23.

As to LTVYAWERGSMKTHFRTAQGFRTV, the protein stability index was 1.53.

For LTVYAWERGSMKTHFVTAQGFRTV, the protein stability index came out at 3.22.

As for LTVYAWERGSMKTHFKTAQGFRTV, the protein stability index amounted to 3.06.

As to LTVYAWERGSMKTHFHTAQGFRTV, the protein stability index worked out at 2.69.

As to LTVYAWERGSMKTHFCTAQGFRTV, the protein stability index turned out to be 2.63.

In the case of LTVYAWERGSMKTHFFTAQGFRTV, the protein stability index was determined as 3.37.

Take LTVYAWERGSMKTHFETAQGFRTV: the protein stability index stood at 2.21.

LTVYAWERGSMKTHFWTAQGFRTV: the protein stability index was determined as 3.85.

On to LTVYAWERGSMKTHFMTAQGFRTV, for which the protein stability index stood at 3.47.

For LTVYAWERGSMKTHFGTAQGFRTV, the protein stability index was found to be 3.06.

For LTVYAWERGSMKTHFATAQGFRTV, the protein stability index came to 3.67.

On to LTVYAWERGSMKTHFNTSQGFRTV, for which the protein stability index came to 1.2.

Regarding LTVYAWERGSMKTHFNTKQGFRTV, the protein stability index came to 2.67.

With LTVYAWERGSMKTHFNTTQGFRTV, the protein stability index was found to be 2.39.

With LTVYAWERGSMKTHFNTFQGFRTV, the protein stability index is 2.56.

With LTVYAWERGSMKTHFNTYQGFRTV, the protein stability index was 4.24.

Consider LTVYAWERGSMKTHFNTCQGFRTV, for which the protein stability index was 1.88.

LTVYAWERGSMKTHFNTEQGFRTV: the protein stability index is 1.54.

For LTVYAWERGSMKTHFNTMQGFRTV, the protein stability index was 2.79.

For the variant LTVYAWERGSMKTHFNTGQGFRTV, the protein stability index amounted to 2.64.

On to LTVYAWERGSMKTHFNTHQGFRTV, for which the protein stability index is 3.09.

As to LTVYAWERGSMKTHFNTRQGFRTV, the protein stability index is 2.84.

In the case of LTVYAWERGSMKTHFNTLQGFRTV, the protein stability index came to 4.32.

With LTVYAWERGSMKTHFNTDQGFRTV, the protein stability index amounted to 4.02.

For LTVYAWERGSMKTHFNTVQGFRTV, the protein stability index was 3.42.

For LTVYAWERGSMKTHFNTWQGFRTV, the protein stability index was found to be 2.73.

With LTVYAWERGSMKTHFNTQQGFRTV, the protein stability index is 2.79.

Regarding LTVYAWERGSMKTHFNTIQGFRTV, the protein stability index was determined as 4.47.

On to LTVYAWERGSMKTHFNTNQGFRTV, for which the protein stability index was 2.63.

On to LTVYAWERGSMKTHGNTAQGFRTV, for which the protein stability index worked out at 1.61.

With LTVYAWERGSMKTHRNTAQGFRTV, the protein stability index is 2.93.

For the variant LTVYAWERGSMKTHYNTAQGFRTV, the protein stability index was 2.28.

In the case of LTVYAWERGSMKTHPNTAQGFRTV, the protein stability index amounted to 1.52.

For LTVYAWERGSMKTHNNTAQGFRTV, the protein stability index came to 1.55.

With LTVYAWERGSMKTHTNTAQGFRTV, the protein stability index turned out to be 1.9.

In the case of LTVYAWERGSMKTHDNTAQGFRTV, the protein stability index came to 2.47.

As to LTVYAWERGSMKTHLNTAQGFRTV, the protein stability index came to 2.21.

For the variant LTVYAWERGSMKTHWNTAQGFRTV, the protein stability index was 2.62.

Regarding LTVYAWERGSMKTHMNTAQGFRTV, the protein stability index was found to be 2.26.

Take LTVYAWERGSMKTHVNTAQGFRTV: the protein stability index amounted to 2.08.

Regarding LTVYAWERGSMKTHINTAQGFRTV, the protein stability index was found to be 2.88.

For the variant LTVYAWERGSMKTHENTAQGFRTV, the protein stability index amounted to 2.27.

As to LTVYAWERGSMKTHKNTAQGFRTV, the protein stability index was found to be 2.01.

For LTVYAWERGSMKTHHNTAQGFRTV, the protein stability index came out at 2.39.

Take LTVYAWERGSMKTHSNTAQGFRTV: the protein stability index was determined as 2.49.

Take LTVYAWERGSMKTHQNTAQGFRTV: the protein stability index was found to be 1.53.

Regarding LTVYAWERGSMKTHFNTARGFRTV, the protein stability index was 2.22.

With LTVYAWERGSMKTHFNTAYGFRTV, the protein stability index amounted to 3.25.

Take LTVYAWERGSMKTHFNTAIGFRTV: the protein stability index came out at 3.54.

LTVYAWERGSMKTHFNTASGFRTV: the protein stability index amounted to 2.63.

LTVYAWERGSMKTHFNTALGFRTV: the protein stability index stood at 3.4.

Take LTVYAWERGSMKTHFNTAEGFRTV: the protein stability index is 2.52.

Consider LTVYAWERGSMKTHFNTAAGFRTV, for which the protein stability index stood at 2.23.

For the variant LTVYAWERGSMKTHFNTAMGFRTV, the protein stability index was 3.27.

As for LTVYAWERGSMKTHFNTAPGFRTV, the protein stability index came out at 3.02.

On to LTVYAWERGSMKTHFNTAVGFRTV, for which the protein stability index was 3.84.

LTVYAWERGSMKTHFNTAHGFRTV: the protein stability index was 2.65.

As for LTVYAWERGSMKTHFNTACGFRTV, the protein stability index was found to be 3.17.

On to LTVYAWERGSMKTHFNTAFGFRTV, for which the protein stability index amounted to 3.35.

For LTVYAWERGSMKTHFNTAGGFRTV, the protein stability index was determined as 2.64.

Consider LTVYAWERGSMKTHFNTAKGFRTV, for which the protein stability index came out at 2.43.

LTVYAWERGSMKTHFNTADGFRTV: the protein stability index was 4.39.

Consider LTVYAWERGSMKTHFNTAWGFRTV, for which the protein stability index came to 1.62.

In the case of LTVYAWERGSMKTHFNTANGFRTV, the protein stability index was 2.92.

In the case of LTVYAWERGSMKTHFNTATGFRTV, the protein stability index was 2.88.

As to LTVYAWERGSMKTHFNPAQGFRTV, the protein stability index amounted to 2.2.

Regarding LTVYAWERGSMKTHFNHAQGFRTV, the protein stability index was 2.95.

In the case of LTVYAWERGSMKTHFNFAQGFRTV, the protein stability index was determined as 2.25.

As to LTVYAWERGSMKTHFNKAQGFRTV, the protein stability index is 2.48.

Regarding LTVYAWERGSMKTHFNIAQGFRTV, the protein stability index was found to be 3.17.

With LTVYAWERGSMKTHFNMAQGFRTV, the protein stability index is 1.74.

For LTVYAWERGSMKTHFNYAQGFRTV, the protein stability index was 2.64.

Regarding LTVYAWERGSMKTHFNLAQGFRTV, the protein stability index was 2.17.

On to LTVYAWERGSMKTHFNAAQGFRTV, for which the protein stability index worked out at 1.69.

Turning to LTVYAWERGSMKTHFNGAQGFRTV, the protein stability index was 2.67.

LTVYAWERGSMKTHFNCAQGFRTV: the protein stability index was determined as 1.78.

With LTVYAWERGSMKTHFNQAQGFRTV, the protein stability index is 4.87.

With LTVYAWERGSMKTHFNWAQGFRTV, the protein stability index is 2.1.

Consider LTVYAWERGSMKTHFNSAQGFRTV, for which the protein stability index is 3.12.

LTVYAWERGSMKTHFNEAQGFRTV: the protein stability index was 1.61.

As to LTVYAWERGSMKTHFNRAQGFRTV, the protein stability index came to 2.38.

As to LTVYAWERGSMKTHFNDAQGFRTV, the protein stability index turned out to be 2.33.

For the variant LTVYAWERGSMKTHFNNAQGFRTV, the protein stability index came to 1.72.

LTVYAWERGSMKTHFNTAQDFRTV: the protein stability index worked out at 2.18.

Regarding LTVYAWERGSMKTHFNTAQEFRTV, the protein stability index turned out to be 3.23.

As to LTVYAWERGSMKTHFNTAQCFRTV, the protein stability index stood at 2.06.

Consider LTVYAWERGSMKTHFNTAQFFRTV, for which the protein stability index was found to be 2.39.

In the case of LTVYAWERGSMKTHFNTAQAFRTV, the protein stability index stood at 2.49.
